{
  "source": "paper PMC10766600",
  "key": {"[1]": {"molecular_target": "bacteriophage T5 capsid-like particles (T5 CLPs) (bacteriophage T5)"}, "[2]": {"molecular_target": "bacteriophage T5 capsid-like particles (T5 CLPs) (bacteriophage T5)", "assay": "cryo-EM structure; pNO-decorated CLPs, 200 kV Glacios, icosahedral (I4) reconstruction from 10,449 particles, 5.8 Å"}},
  "data": [
    {"substance": "pNO: N-terminal capsid-binding domain pN of pb10 fused at its C-terminal end with ovalbumin (from UniProt Q6QGD6 1-73)", "values": [
      {"measurement": "anti-Ova IgG (ELISA) in sera of C57BL/6 mice after a single subcutaneous injection of CLP-bound pNO against pNO alone, days 14 to 192 post-injection", "setting": "[1]", "result": 1000, "unit": "fold"},
      {"measurement": "stoichiometry N (copies per capsid)", "setting": "[2]", "result": 120}
    ]},
    {"substance": "pO: full-length pb10 fused at its C-terminal end with ovalbumin (from UniProt Q6QGD6 1-164)", "values": [
      {"measurement": "anti-Ova IgG (ELISA) in sera of C57BL/6 mice after a single subcutaneous injection of CLP-bound pO against pO alone, days 14 to 192 post-injection", "setting": "[1]", "result": 1000, "unit": "fold"}
    ]}
  ]
}
